Where no end group is shown, it is not given here. The star is where a group is joined. Biotin = O=C1N[C@H]2[C@H](CS[C@H]2CCCCC(=O)*)N1; TTDS = NCCCOCCOCCOCCCNC(=O)CCC(=O)*
Columns and labels:
[1] = target: T1, MAGI2-2, second PDZ domain of MAGI2 (human, UniProt Q86UL8 426-510); test: fluorescence polarisation; direct: N-terminally fluorescein-labelled PBM peptide (tracer) with increasing amounts of MBP-PDZ; 384-well plates; triplicate; direct binding model (ProFit); settings: both partners purified
T1 construct: not shown: His6, N-terminal, kept; MBP, N-terminal, kept
T1 sequence (Q86UL8 426-510): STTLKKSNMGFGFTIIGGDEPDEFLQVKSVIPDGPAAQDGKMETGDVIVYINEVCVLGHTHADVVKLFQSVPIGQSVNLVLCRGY

SYNJ2BP PDZ domain = target: T2, SYNJ2BP PDZ domain (human, UniProt P57105 13-100); test: as above; settings: both partners purified
T2 sequence (looked up): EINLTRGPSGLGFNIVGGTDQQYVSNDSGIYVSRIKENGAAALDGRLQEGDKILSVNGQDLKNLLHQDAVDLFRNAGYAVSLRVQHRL

[2] = target: T3, NHERF3-1, first PDZ domain of NHERF3 (human, UniProt Q5T2W1 9-90); test: as above; settings: both partners purified
T3 sequence (looked up): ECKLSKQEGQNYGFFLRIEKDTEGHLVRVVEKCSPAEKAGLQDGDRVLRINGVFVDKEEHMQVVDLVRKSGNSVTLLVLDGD

[3] = target: MAGI1-2, second PDZ domain of MAGI1 (human, UniProt Q96QZ7 472-554); test: as above; settings: both partners purified
MAGI1-2, second PDZ domain of MAGI1, sequence (Q96QZ7 472-554): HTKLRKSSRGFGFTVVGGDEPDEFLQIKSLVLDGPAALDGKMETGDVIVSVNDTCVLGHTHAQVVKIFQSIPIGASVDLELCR

[4] = target: T4, PDZRN3-1, first PDZ domain of PDZRN3 (human, UniProt Q9UPQ7 249-339); test: as above; settings: both partners purified
T4 sequence (looked up): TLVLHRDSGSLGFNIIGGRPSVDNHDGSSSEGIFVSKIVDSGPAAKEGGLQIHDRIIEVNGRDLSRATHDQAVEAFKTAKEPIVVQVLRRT

[5] = target: T5, PDZRN4-1, first PDZ domain of PDZRN4 (human, UniProt Q6ZMN7 224-314); test: as above; settings: both partners purified
T5 sequence (looked up): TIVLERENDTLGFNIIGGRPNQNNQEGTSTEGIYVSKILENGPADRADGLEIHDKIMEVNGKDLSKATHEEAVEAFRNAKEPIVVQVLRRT

[6] = target: DLG4-3, third PDZ domain of DLG4 (human, UniProt P78352 313-393); test: as above; settings: both partners purified
DLG4-3, third PDZ domain of DLG4, sequence (P78352 313-393): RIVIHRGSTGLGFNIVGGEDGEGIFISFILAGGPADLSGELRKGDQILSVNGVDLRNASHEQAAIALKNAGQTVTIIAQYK

[7] = target: T6, SCRIB-3, third PDZ domain of SCRIB (human, UniProt Q14160 1004-1093); test: as above; settings: both partners purified
T6 sequence (looked up): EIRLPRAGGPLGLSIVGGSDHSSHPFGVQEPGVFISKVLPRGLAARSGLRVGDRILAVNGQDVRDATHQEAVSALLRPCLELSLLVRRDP

MAGI2-2 = target: T7, MAGI2-2 (human, UniProt Q86UL8 426-510); test: holdup assay; biotinylated PBM peptide saturating streptavidin resin (biotin resin as reference); tag-PDZ at 4 uM in crude E. coli lysate, 15 min, filtration, free tag-PDZ by capillary electrophoresis; singlicate; BI cut-off 0.20; BI converted into KD with the peptide concentration back-calculated from FP; settings: one partner purified
T7 construct: PDZ domain number 2 of human MAGI2; also called MAGI2 PDZ dom 2; source: E. coli, in crude cell lysate; not shown: His, N-terminal, kept
T7 sequence (Q86UL8 426-510): as the sequence (Q86UL8 426-510) above

MAGI2-3 = target: T8, MAGI2-3 (human, UniProt Q86UL8 605-683); test: as above; settings: one partner purified
T8 construct: PDZ domain number 3 of human MAGI2; also called MAGI2 PDZ dom 3; source: E. coli, in crude cell lysate; not shown: His, N-terminal, kept
T8 sequence (Q86UL8 605-683): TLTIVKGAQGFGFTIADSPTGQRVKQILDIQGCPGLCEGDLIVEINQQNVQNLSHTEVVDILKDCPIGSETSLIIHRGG

MAGI3-2 = target: T9, MAGI3-2 (human, UniProt Q5TCQ9 410-492); test: as above; settings: one partner purified
T9 construct: PDZ domain number 2 of human MAGI3; also called MAGI3 PDZ dom 2; source: E. coli, in crude cell lysate; not shown: His, N-terminal, kept
T9 sequence (Q5TCQ9 410-492): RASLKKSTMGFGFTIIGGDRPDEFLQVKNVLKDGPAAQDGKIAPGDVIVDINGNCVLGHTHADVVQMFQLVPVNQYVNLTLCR

NHERF2-1 = target: T10, NHERF2-1 (human, UniProt Q15599 11-90); test: as above; settings: one partner purified
T10 construct: PDZ domain number 1 of human NHERF2; also called NHERF2 PDZ dom 1; source: E. coli, in crude cell lysate; not shown: His, N-terminal, kept
T10 sequence (Q15599 11-90): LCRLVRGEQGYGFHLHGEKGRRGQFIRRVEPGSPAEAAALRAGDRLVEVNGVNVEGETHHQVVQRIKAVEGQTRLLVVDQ

NHERF2-2 = target: T11, NHERF2-2 (human, UniProt Q15599 150-230); test: as above; settings: one partner purified
T11 construct: PDZ domain number 2 of human NHERF2; also called NHERF2 PDZ dom 2; source: E. coli, in crude cell lysate; not shown: His, N-terminal, kept
T11 sequence (Q15599 150-230): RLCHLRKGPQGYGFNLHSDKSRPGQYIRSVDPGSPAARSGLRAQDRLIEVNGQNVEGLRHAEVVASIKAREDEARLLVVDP

PARD3-3 = target: T12, PARD3-3 (human, UniProt Q8TEW0 590-677); test: as above; settings: one partner purified
T12 construct: the text says PARD3-1; also called PARD3 PDZ dom 3; source: E. coli, in crude cell lysate; not shown: His, N-terminal, kept
T12 sequence (Q8TEW0 590-677): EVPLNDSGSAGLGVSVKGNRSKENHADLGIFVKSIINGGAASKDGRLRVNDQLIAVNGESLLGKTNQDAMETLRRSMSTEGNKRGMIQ

PTPN13-2 = target: T13, PTPN13-2 (human, UniProt Q12923 1368-1452); test: as above; settings: one partner purified
T13 construct: PDZ domain number 2 of human PTPN13; also called PTPN13 PDZ dom 2; source: E. coli, in crude cell lysate; not shown: His, N-terminal, kept
T13 sequence (looked up): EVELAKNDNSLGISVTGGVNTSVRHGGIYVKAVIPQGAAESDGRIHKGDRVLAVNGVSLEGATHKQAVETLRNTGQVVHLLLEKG

PTPN13-4 = target: T14, PTPN13-4 (human, UniProt Q12923 1788-1868); test: as above; settings: one partner purified
T14 construct: PDZ domain number 4 of human PTPN13; also called PTPN13 PDZ dom 4; fourth PDZ domain of PTPN13; source: E. coli, in crude cell lysate; not shown: His, N-terminal, kept
T14 sequence (looked up): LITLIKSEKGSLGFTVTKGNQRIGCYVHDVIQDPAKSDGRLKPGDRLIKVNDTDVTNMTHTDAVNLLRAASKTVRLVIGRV

DLG1-2 = target: T15, DLG1-2 (human, UniProt Q12959 319-405); test: as above; settings: one partner purified
T15 construct: PDZ domain number 2 of human DLG1; also called DLG1 PDZ dom 2; source: E. coli, in crude cell lysate; not shown: His, N-terminal, kept

MAGI1-3 = target: T16, MAGI1-3 (human, UniProt Q96QZ7 643-721); test: as above; settings: one partner purified
T16 construct: PDZ domain number 3 of human MAGI1; also called MAGI1 PDZ dom 3; source: E. coli, in crude cell lysate; not shown: His, N-terminal, kept
T16 sequence (Q96QZ7 643-721): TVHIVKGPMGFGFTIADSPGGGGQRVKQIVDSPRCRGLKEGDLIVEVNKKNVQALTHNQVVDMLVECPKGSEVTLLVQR

fluorescein-RTRRETQL (source: synthetic peptide) [f16E6, fluorescein-labelled HPV16 E6 PBM peptide]
Kd [1]: 2.77 µM
Kd (SYNJ2BP PDZ domain): 2.28 µM
Kd [2]: 2.34 µM
Kd [3]: 0.5 µM
Kd [4]: 1.08 µM
Kd [5]: 2.93 µM
Kd [6]: 7.27 µM
Kd [7]: 1.47 µM

B1: PTEN_13 (peptide, UniProt P60484 391-403, looked up)
peptide: {Biotin-TTDS}-PFDEDQHTQITKV
notes: also called 13-mer PTEN peptide; extended wild-type peptide; source: synthetic peptide, bought: JPT Innovative Peptide Solutions (70%-80% purity)
Kd (MAGI2-2): 149 µM
Kd (MAGI2-3): 30 µM
Kd (MAGI3-2): 21 µM
Kd (NHERF2-1): 134 µM
Kd (NHERF2-2): 125 µM
Kd (PARD3-3): 96 µM
Kd (PTPN13-2): 16 µM
Kd (PTPN13-4): 36 µM
Kd (DLG1-2): 81 µM
Kd (MAGI1-3): 10 µM

Source: paper PMC7774954 (PLoS ONE, 2020)
